Assay results published in patent US20150368338A1 (Janssen / Centocor, published 2015).
Where a chain is given by its changes, count along the chain named.

T1: IFN-αF (human, UniProt P01568 24-189)
T1 chain: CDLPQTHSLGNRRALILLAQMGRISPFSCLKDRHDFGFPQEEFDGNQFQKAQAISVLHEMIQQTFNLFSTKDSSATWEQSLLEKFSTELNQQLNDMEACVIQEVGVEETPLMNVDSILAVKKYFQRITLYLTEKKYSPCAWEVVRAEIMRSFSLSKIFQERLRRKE

B1: Fab IFWM371 (His-tagged, IgG1/kappa isotype) (Fab, V domains shown)
VH: EVQLVQSGAEVKKPGESLKISCKGSGYSFTSYWIGWVRQMPGKGLEWMGIIDPSDSDTRYSPSFQGQVTISADKSISTAYLQWSSLKASDTAMYYCARHPGLNWAPDFDYWGQGTLVTVSS
VL: not shown
notes: His-tagged Fab expressed in HEK293 cells for crystallography; C-terminal 6xHis tag; also called FabM371; Fab of IFWM371
B2: Fab IFWM3421 (Fab, V domains shown)
VH: B1 VH
VL: DIQMTQSPSSLSASVGDRVTITCRASQSIDGFLNWYQQKPGKAPKLLIYFASSLQSGVPSRFSGSGSGTDFTLTISSLQPEDFATYYCQQSYDLPITFGQGTKVEIK
notes: also called Fab3421; FabM3421
B3: IFWM3455 (antibody, V domains shown)
VH: B1 VH
VL: B2 VL with F32Y
B4: IFWM3460 (antibody, V domains shown)
VH: B1 VH
VL: B2 VL with F50V
B5: IFWM3314 (antibody, IgG1, V domains shown)
VH: B1 VH
VL: B2 VL with G31R, F32A, Y92F, L94F, I96L
B6: IFWM3322 (antibody, IgG1, V domains shown)
VH: B1 VH
VL: B2 VL with D30A, G31D, Y92H, D93S, L94F, I96L
B7: IFWM3410 (antibody, IgG1, V domains shown)
VH: B1 VH with N103A
VL: DIQMTQSPSSLSASVGDRVTITCRASQSIANTNLNWYQQKPGKAPKLLIHWASSLQSGVPSRFSGSGSGTDFTLTISSLQPEDFATYYCQQWYDNPLTFGQGTKVEIK
B8: IFWM3400 (antibody, IgG1, V domains shown)
VH: B1 VH with N103A
VL: B2 VL with D30A, G31D, Y92H, D93S, L94F, I96L
B9: IFWM3328 (antibody, IgG1, V domains shown)
VH: B1 VH
VL: DIQMTQSPSSLSASVGDRVTITCRASQSINNLNWYQQKPGKAPKLLIYWASSLQSGVPSRFSGSGSGTDFTLTISSLQPEDFATYYCQQGYDTPFTFGQGTKVEIK
B10: IFWM3385 (antibody, IgG1, V domains shown)
VH: B1 VH with N103A
VL: B2 VL with D30G, G31D, S91A, Y92L, L94F, I96L
B11: IFWM3320 (antibody, IgG1, V domains shown)
VH: B1 VH
VL: B2 VL with D30N, F32V, Y92H, L94F, I96L
B12: IFWM3416 (antibody, IgG1, V domains shown)
VH: B1 VH with N103A
VL: B7 VL with A30R, W92G, N95T, L97F
B13: IFWM3332 (antibody, IgG1, V domains shown)
VH: B1 VH
VL: B7 VL
B14: IFWM3405 (antibody, IgG1, V domains shown)
VH: B1 VH with N103A
VL: B7 VL with T32N, W92G, N95T, L97F
B15: IFWM3522 (antibody, IgG1, V domains shown)
VH: B1 VH
VL: B2 VL with D30E, F32A, S91A, L94F, I96L
B16: IFWM3525 (antibody, IgG1, V domains shown)
VH: B1 VH
VL: B7 VL with A30D, T32S, N33Y, H50Y, W51G, W92G, N95F
B17: Fab of IFWM3525 (Fab, V domains shown)
VH: B1 VH
VL: B7 VL with A30D, T32S, N33Y, H50Y, W51G, W92G, N95F
notes: Fab for crystallography with C-terminal 6xHis tag; also called Fab IFWM3525

The binders below were run against T2, Human IFN-ω T80E variant with a C-terminal 6xHis-Tag (human, UniProt P05000 24-195) (assay: complex purified by size exclusion and crystallized).
Protocol: The Fab was received in 20 mM Tris pH 7.4, 50 mM NaCl. […] The protein was received in 20 mM Tris, pH 7.4, 50 mM NaCL.

B1: binds.

Each binder was assayed against T2, Human IFN-ω T80E variant with a … (assay: complex crystallized, X-ray structure).

B2: binds.

These binders were tested against T3, human IFN-ω (human, UniProt P05000 24-195) (assay: cell-based or functional assay).

Going from B3 to B4, the “IC50 (pM), ISRE reporter gene assay” value rises from 24 pM to 43.5 pM.

The binders below were run against IFN-α4a (human, UniProt P05014 24-189) (assay: cell-based or functional assay).

First: B5
Second: B6
The “IC50 (pM), ISRE assay” value of the first is lower: 137 pM for the first, 352 pM for the second.

Going from B7 to B8, the “IC50 (pM), ISRE assay” value rises from 192 pM to 220 pM.

First: B9
Second: B10
The “IC50 (pM), ISRE assay” value of the first is higher: 1170 pM for the first, 414 pM for the second.

Going from B11 to B12, the “IC50 (pM), ISRE assay” value rises from 166 pM to 201 pM.

Going from B13 to B14, the “IC50 (pM), ISRE assay” value falls from 519 pM to 86 pM.

The binders below were run against IFN-αJ1 (human, UniProt P01567 24-189) (assay: cell-based or functional assay).

Going from B5 to B6, the “IC50 (pM), ISRE assay” value rises from 86 pM to 169 pM.

Going from B7 to B8, the “IC50 (pM), ISRE assay” value falls from 217 pM to 154 pM.

Compared with B9, B10 is lower in “IC50 (pM), ISRE assay” value: 1660 pM for the first, 251 pM for the second.

Compared with B11, B12 is lower in “IC50 (pM), ISRE assay” value: 213 pM for the first, 61 pM for the second.

Going from B13 to B14, the “IC50 (pM), ISRE assay” value falls from 487 pM to 26 pM.

Each binder was assayed against IFN-αWA (human, UniProt P05015 24-189) (assay: cell-based or functional assay).

Compared with B5, B6 is higher in “IC50 (pM), ISRE assay” value: 188 pM for the first, 382 pM for the second.

First: B7
Second: B8
The “IC50 (pM), ISRE assay” value of the first is higher: 538 pM for the first, 376 pM for the second.

Compared with B9, B10 is lower in “IC50 (pM), ISRE assay” value: 3080 pM for the first, 839 pM for the second.

First: B11
Second: B12
The “IC50 (pM), ISRE assay” value of the first is lower: 633 pM for the first, 779 pM for the second.

Compared with B13, B14 is lower in “IC50 (pM), ISRE assay” value: 947 pM for the first, 216 pM for the second.

What follows are binders tested against T4, IFN-αI (human, UniProt P01571 24-189) (assay: cell-based or functional assay).

Going from B5 to B6, the “IC50 (pM), ISRE assay” value rises from 163 pM to 460 pM.

Going from B7 to B8, the “IC50 (pM), ISRE assay” value falls from 183 pM to 137 pM.

Going from B9 to B10, the “IC50 (pM), ISRE assay” value falls from 2000 pM to 225 pM.

Going from B11 to B12, the “IC50 (pM), ISRE assay” value falls from 355 pM to 158 pM.

First: B13
Second: B14
The “IC50 (pM), ISRE assay” value of the first is higher: 893 pM for the first, 72 pM for the second.

These binders were tested against IFN-αK (human, UniProt P05013 24-189) (assay: cell-based or functional assay).

Going from B5 to B6, the “IC50 (pM), ISRE assay” value rises from 65 pM to 71 pM.

Going from B7 to B8, the “IC50 (pM), ISRE assay” value falls from 41 pM to 35 pM.

Compared with B9, B10 is lower in “IC50 (pM), ISRE assay” value: 321 pM for the first, 65 pM for the second.

Going from B11 to B12, the “IC50 (pM), ISRE assay” value rises from 34 pM to 43 pM.

First: B13
Second: B14
The “IC50 (pM), ISRE assay” value of the first is higher: 76 pM for the first, 22 pM for the second.

Molecular target: T3, human IFN-ω
Assay: cell-based or functional assay
Remark: another data set of the same source

First: B5
Second: B6
The “IC50 (pM), ISRE assay” value of the first is lower: 32 pM for the first, 59 pM for the second.

First: B7
Second: B8
The “IC50 (pM), ISRE assay” value of the first is higher: 89 pM for the first, 29 pM for the second.

First: B9
Second: B10
The “IC50 (pM), ISRE assay” value of the first is higher: 456 pM for the first, 68 pM for the second.

Going from B11 to B12, the “IC50 (pM), ISRE assay” value falls from 53 pM to 40 pM.

Compared with B13, B14 is lower in “IC50 (pM), ISRE assay” value: 228 pM for the first, 19 pM for the second.

Molecular target: IFN-αJ1 (human, UniProt P01567 24-189)
Assay: cell-based or functional assay
Remark: another data set of the same source

Compared with B15, B16 is 1.6-fold lower in “IC50, ISRE reporter gene assay” value: 0.134 nM for the first, 0.084 nM for the second.

Molecular target: T1, IFN-αF
Assay: cell-based or functional assay

First: B15
Second: B16
The “IC50, ISRE reporter gene assay” value of the first is 2.7-fold higher: 0.225 nM for the first, 0.082 nM for the second.

What follows are binders tested against IFN-αC (human, UniProt P01566 24-189) (assay: cell-based or functional assay).

First: B15
Second: B16
The “IC50, ISRE reporter gene assay” value of the first is 2.3-fold higher: 0.077 nM for the first, 0.034 nM for the second.

Molecular target: IFN-αK (human, UniProt P05013 24-189)
Assay: cell-based or functional assay
Remark: another data set of the same source

Compared with B15, B16 is 4.1-fold lower in “IC50, ISRE reporter gene assay” value: 0.029 nM for the first, 0.007 nM for the second.

Molecular target: IFN-αWA (human, UniProt P05015 24-189)
Assay: cell-based or functional assay
Remark: another data set of the same source

Compared with B15, B16 is 2.8-fold lower in “IC50, ISRE reporter gene assay” value: 0.185 nM for the first, 0.066 nM for the second.

Molecular target: T4, IFN-αI
Assay: cell-based or functional assay
Remark: another data set of the same source

Compared with B15, B16 is 1.9-fold higher in “IC50, ISRE reporter gene assay” value: 0.124 nM for the first, 0.24 nM for the second.

The binders below were run against human IFN-ω (human, UniProt P05000 24-195) (assay: cell-based or functional assay).

Going from B15 to B16, the “IC50, ISRE reporter gene assay” value falls from 0.053 nM to 0.019 nM (2.8-fold).

What follows are binders tested against IFN-αG (human, UniProt P01569 24-189) (assay: cell-based or functional assay).

Going from B15 to B16, the “IC50, ISRE reporter gene assay” value falls from 0.057 nM to 0.019 nM (3-fold).

Molecular target: IFN-α4a (human, UniProt P05014 24-189)
Assay: cell-based or functional assay
Remark: another data set of the same source

Going from B15 to B16, the “IC50, ISRE reporter gene assay” value falls from 0.163 nM to 0.042 nM (3.9-fold).

Each binder was assayed against IFN-αH2 (human, UniProt P01570 24-189) (assay: cell-based or functional assay).

Going from B15 to B16, the “IC50, ISRE reporter gene assay” value falls from 0.034 nM to 0.015 nM (2.3-fold).

The binders below were run against T2, Human IFN-ω T80E variant with a … (assay: complex purified by size exclusion and crystallized, X-ray structure).

B17: binds.
